Assay results reported in a protein production outcome set (Wang et al. 2014).

Test: label from the status in PepcDB records

Row | Sequence | protein production
1 | MSKEIFDTFKFKCGAELKNRVLMAPMTIQAGYFDGSVTSEMIDYYQFRAGDASAIIVESCFVENHGRGFPGAIGIDNDDKIPGLKRLAEAIQAKGSKAILQLYHAGRMANPKFNEGEQPISASPIAALRPDAVPPREMTHAQINQMIDDFGEATRRAIEAGFDGVEIHGANTYLLQQFFSPHSNRRQDSWGGSREKRTRFPIEVLTKVQHVVAEKEASHFIIGYRFSPEEIEEPGIRFEDTMFLLNTLAEYEPDYFHISANSYQRTSIVNQEDTEPLINKYIKMQSAQLAKIPLIGVGSIAQRQDAEHALELGYDLLSVGKAYLVEPQWTDKISQNEEVEQFVDIHDQKVLHIPSPLWKVMDFMILDKEEEHRKYEKLKALQNKKVKFNKGTYHVYAKGHNGNLPMKVQLSEDKIVSIEVDDSGESEGIANPVFERLPQDIINGQTLNVDVISGATVTSEGIVQGIADAIEQAGEDPDILRARPKPVVQWSDEVVEETTDVVVIGTGGAGLSAAATVLDEGKEVIMLEKFAAIGGNTIRTGGQVNAAEPKWQNAFPALAGEKETLIQLLNHDENDIDEAYIEDFNTLKRQIKDYLENSSNEDEYLFDSVELHRIQTYLGGKRKDRNNVEISGDYDLVKTLTDNVLESVYWLKDKGVHFDRSFVDMPVGALWRRGHKPMKAQGLEYIENLGDYVKHNHGRIFTETTAEKLIKEGNQVVGIEARKANGAKVKIHTRHGVVLATGGFGANTKMLQQYNTYWDNIPDDIKTTNSPAITGDGIRLGVQAGADIVGMGFSQMMPISDPKTGALFTGLIVTPSNFVFVNKEGQRFVNEFESRDVLSKAALEQKDGIFYIIADANIKALAMNTTEDKINQELEDGTLVKADTLEALAQKLNIDTTTFVNTIERYNTFVEQGQDEDFNKNAFDLKIEKAPFYATPRKPAIHHTMGGLKINTHAQVIDVEGHIIEGLYAAGEVAGGIHAGNRLGGNALADIFTFGRIAGQSAVTK | failed
2 | MFKRLKDSALLFWSLEILIVATLIWVCTNIGFLFQPIGTFLSVVFMPILISGFLFYMLNPLVKLLTKVHYKKFRISRTGAVAIVFVLLFGLLVWGAVSLLPRLVSQVTQLIYNLPSIATEMQKAATKLINNSSVLKRIDISSYTKQFNGEISKYSQNFLSSLSSSVVTVISTITSVTIMAITIPVVLFYMLKDSEKFIPAISRFLPKKQRPEVIGLLQKMGDTISSYISGQVIECLFVGTFTAIGYMLISQPYGLLLGVIAGLTNIIPYVGPYIGIAPSLIVAFTKSPMQVVYVIIVVVIVQQVDGNLIYPNIIGRTLKIHPLTIIILLLAAGNIAGILGMILAIPFYAVVRTVVIYLYNIVELRNEEHLRKQTTVYQPQPAKATKADLTTTTKSKK | failed
3 | MAPLGGAPRLVLLFSGKRKSGKDFVTEALQSRLGADVCAVLRLSGPLKEQYAQEHGLNFQRLLDTSTYKEAFRKDMIRWGEEKRQADPGFFCRKIVEGISQPIWLVSDTRRVSDIQWFREAYGAVTQTVRVVALEQSRQQRGWVFTPGVDDAESECGLDNFGDFDWVIENHGVEQRLEEQLENLIEFIRSRL | failed
4 | MEVARGLEGVLFTESRMCYIDGQQGKLYYYGIPIQELAEKSSFEETTFLLLHGRLPRRQELEEFSAALARRRALPAHLLESFKRYPVSAHPMSFLRTAVSEFGMLDPTEGDISREALYEKGLDLIAKFATIVAANKRLKEGKEPIPPREDLSHAANFLYMANGVEPSPEQARLMDAALILHAEHGFNASTFTAIAAFSTETDLYSAITAAVASLKGPRHGGANEAVMRMIQEIGTPERAREWVREKLAKKERIMGMGHRVYKAFDPRAGVLEKLARLVAEKHGHSKEYQILKIVEEEAGKVLNPRGIYPNVDFYSGVVYSDLGFSLEFFTPIFAVARISGWVGHILEYQELDNRLLRPGAKYVGELDVPYVPLEARE | not failed
5 | MPTLFDDPLHQLPRPPRRVAAGVVHLPNFLGLAEQKALVAQARDLAREVVGTPLAMVRPKLKSGQMSVHMLHLGKYWASNPYRYVDVVDGFPVPPLPDSFVDLAHRALLSAGSLSNSLQSWSEAYRAEAALVNYYSPDASMGMHQDANEESEAPVISLSIGDTGIFRLGGTLNRNKPWTDIPLMSGDLIVFGGANRQAFHGIPSIEANTAPAGCGLKEGRINITIRQLALLEHHHHHH | not failed
6 | MGNCCVSSGTTDRENENVSDKNTTIVEEETVVKEVLSETTLFTPSSSFRTSTFKDPVKTKIREDEEKKPGFLKMASDPVLIRPGSVDPEEGSEVSEICSLSLSESVSSTVVMNGYDEEHVMMKQRKSQRSPAKTRTQVTGNNYPTRRTDQSPRKRNNGTCNGARYGSGVRDPGERSGRRSRSPATNRSVMDSNQSSRVGGAKTRKNNQSPGRVRLDPAKNGLDQQQHQNYGYTTEELLENPLVSLECFIFL | failed
7 | MEKKKVTIPQVCHGHSRPVVDLFYSPITPDGFFLISASKDSHPMLRNGETGDWIGTFEGHKGAVWSSCLDNNALRAASASADFSAKLWDALTGDVLHSFEHKHIVRACAFSEDTKSLLTGGFEKILRVFDMNRLDAPPTEVDKSPGSIRTLTWLHSDQTILSSCTDIGGVRLWDVRSGKIVQTLETKSPVTSAEVSQDGRYITTADGSTVKFWDANHFGLVKSYDMPCNIESASLEPKSGEKFVAGGEDMWVRVFDFYTGEEIGCNKGHHGPVHCVRFTPTGLSYASGSEDGTIRIWQTTPANPEENETSSRRVKHSVDEVSKKIEGFHINKEGKTAEKPSDT | failed
8 | MARCAVFLEELWFALFAWVPTVLGTAVRLVAWRPLFRLLGGVCGKVRFGQSLTLQGAGHMRLADGVRLGKGCHLYARTGELVMGENAALNINVVVDADGGTVRIGAHATVGPGTVIRAANHRFDRLDTPIMFQGHEYGEVVIDDDVWIAANCTVVPGVHIGRGAVVGAGAVVTKDVEPYTVVAGVPARFIRRRGPAE | failed
9 | MWPFRKEQERGGWLIGWNPHGLLVIVVAVVHDPRVENATAALNKLKESEGDIRATAHRKQHKDVPSATSLLILGWMHSKQATLDKSEYADAWVRSQHSRAELWLELNEGPLLHQLYCCGSPVQPCHLHVLRSDPTVSYAVTSTAFSAVARHDRGDLVKLVEGKMQPICVEGANSTLEGVLLPSHMVHSAGPRTKMRRMVGSDPLTQDEEEKQEGAKQRTEDDRVSVGSSGSGEGSTESQSVRGSETPRFGGELHPRLDFPTSTDYGELSSLLRASAYGKILRELCENKVSNATDGTAATARLCAYWKNCGNRFTGFLTKILVVFHLVLKWPGNVSYTAALLEFRLRMVIHWLLLLRGDTRVCCLHPVLPHIQHNDPALRRFCVVDFLVRFAVDTICGMLLSLLLSHGSGLLVTKAVSWCRWLLYDLHMEYMDWFEGWPAGLKMNGDLSMTLSCIAKAVLEASWASVEDLSNVGLFYKLLIFVAPLGASCAFAFVADLCLIASLHLYLVFHSVSLPYRFARFMLRNLFLQFQGKKHNPLRHRTDTYDFPVEQTLVATVIFTIIVFLLPTLAVYHVYFALICIAVWLLQGALLVAAHLTLYLPLYPLFYWALYRRQWPGGVALTGPKVLSTPQHSRALNPFARGSLTVEFGVVSKPLELRVLLADFLLVAHVVGRLHPFDMIVAVFKVRRWERTNPGKCLVPPLPADIMPLTGMTLPKTAVA | failed
10 | MSGAVPETPYHQRWLAFPDAVSSYRPLESRLAGTSRATADNRTPCTGRLGTPRVFLMATDDVSKAYSSPTFDAEALLGTVISAEDPDRVLIEPWATGVDGVILDVGSGTGRWTGHLASLGHQIEGLEPATRLVELARQTHPSVTFHHGTITDLSDSPKRWAGLLAWYSLIHMGPGELPDALVALRMAVEDGGGLLMSFFSGPSLEPMYHPVATAYRWPLPELAQALETAGFQVTSSHWDPRFPHAYLTAEASKQNLALEHHHHHH | failed
